Measurements from patent publication US20080044419A1, “Treatment of T Cell Mediated Diseases by Inhibition of Fgfr3” (Fibron Ltd., priority 2003, published 2008).

These binders were tested against fibroblast growth factor receptor 3 (FGFR3) (UniProt P22607) (assay: not stated (BIAcore presumably)).

Row | koff [s⁻¹] | Binder
1 | 0.00071 | PRO-001 (Fab, V domains shown) VH: QVQLQQSGPGLVKPSQTLSLTCAISGDSVSSNSAAWNWIRQSPGRGLEWLGRTYYRSKWYNDYAVSVKSRITINPDTSKNQFSLQLNSVTPEDTAVYYCARSYYPDFDYWGQGTLVTVSS VL: DIELTQPPSVSVAPGQTARISCSGDALGDKYASWYQQKPGQAPVLVIYDDSDRPSGIPERFSGSNSGNTATLTISGTQAEDEADYYCQSYDGPDLWVFGGGTKLTVLG

The binders below were run against fibroblast growth factor receptor 3 (FGFR3) (UniProt P22607) (assay: BIAcore).

Row | Kd [nM] | Binder
2 | 1.5 | PRO-001 (Fab, V domains shown) VH: QVQLQQSGPGLVKPSQTLSLTCAISGDSVSSNSAAWNWIRQSPGRGLEWLGRTYYRSKWYNDYAVSVKSRITINPDTSKNQFSLQLNSVTPEDTAVYYCARSYYPDFDYWGQGTLVTVSS VL: DIELTQPPSVSVAPGQTARISCSGDALGDKYASWYQQKPGQAPVLVIYDDSDRPSGIPERFSGSNSGNTATLTISGTQAEDEADYYCQSYDGPDLWVFGGGTKLTVLG

These binders were tested against fibroblast growth factor receptor 3 (FGFR3) (UniProt P22607) (assay: FACS).

Row | Kd [nM] | Binder
3 | 43 | PRO-002 (Fab, V domains shown) VH: QVQLVQSGAEVKKPGASVKVSCKASGYTFTSYYMHWVRQAPGQGLEWMGWINPNSGGTNYAQKFQGRVTMTRDTSISTAYMELSSLRSEDTAVYYCARDFLGYEFDYWGQGTLVTVSS VL: DIELTQPPSVSVAPGQTARISCSGDALGDKYASWYQQKPGQAPVLVIYDDSDRPSGIPERFSGSNSGNTATLTISGTQAEDEADYYCQSYDYSADYVFGGGTKLTVLG
4 | 1.4 | PRO-026 (Fab, V domains shown) VH: QVQLVQSGAEVKKPGASVKVSCKASGYTFTSYYMHWVRQAPGQGLEWMGWINPNSGGTNYAQKFQGRVTMTRDTSISTAYMELSSLRSEDTAVYYCARGYWYAYFTYINYGYFDNWGQGTLVTVSS VL: DIALTQPASVSGSPGQSITISCTGTSSDVGGYNYVSWYQQHPGKAPKLMIYDVSNRPSGVSNRFSGSKSGNTASLTISGLQAEDEADYYCQSYDNNSDVVFGGGTKLTVLG
5 | 0.7 | PRO-001 (Fab, V domains shown) VH: QVQLQQSGPGLVKPSQTLSLTCAISGDSVSSNSAAWNWIRQSPGRGLEWLGRTYYRSKWYNDYAVSVKSRITINPDTSKNQFSLQLNSVTPEDTAVYYCARSYYPDFDYWGQGTLVTVSS VL: DIELTQPPSVSVAPGQTARISCSGDALGDKYASWYQQKPGQAPVLVIYDDSDRPSGIPERFSGSNSGNTATLTISGTQAEDEADYYCQSYDGPDLWVFGGGTKLTVLG
6 | < 1 | PRO-029 (Fab, V domains shown) VH: QVQLVQSGAEVKKPGASVKVSCKASGYTFTSYYMHWVRQAPGQGLEWMGWINPNSGGTNYAQKFQGRVTMTRDTSISTAYMELSSLRSEDTAVYYCARTWQYSYFYYLDGGYYFDIWGQGTLVTVSS VL: DIVLTQSPATLSLSPGERATLSCRASQSVSSSYLAWYQQKPGQAPRLLIYGASSRATGVPARFSGSGSGTDFTLTISSLEPEDFATYYCQQTNNAPVTFGQGTKVEIKR

What follows are binders tested against fibroblast growth factor receptor 3 (FGFR3), P22607 (assay: cell-based or functional assay).

Row | Binder | IC50 FGFR3 (FGF9), FDCP-FGFR3 proliferation assay performed with FGF9 [nM]
7 | PRO-026 Fab-dHLX (protein) VH: QVQLVQSGAEVKKPGASVKVSCKASGYTFTSYYMHWVRQAPGQGLEWMGWINPNSGGTNYAQKFQGRVTMTRDTSISTAYMELSSLRSEDTAVYYCARGYWYAYFTYINYGYFDNWGQGTLVTVSS VL: DIALTQPASVSGSPGQSITISCTGTSSDVGGYNYVSWYQQHPGKAPKLMIYDVSNRPSGVSNRFSGSKSGNTASLTISGLQAEDEADYYCQSYDNNSDVVFGGGTKLTVLGQ | 70
8 | PRO-012 Fab-dHLX (protein) VH: QVQLKESGPALVKPTQTLTLTCTFSGFSLSTSGVGVGWIRQPPGKALEWLALIDWDDDKYYSTSLKTRLTISKDTSKNQVVLTMTNMDPVDTATYYCARYHSWYEMGYYGSTVGYMFDYWGQGTLVTVSS VL: DIELTQPPSVSVAPGQTARISCSGDALGDKYASWYQQKPGQAPVLVIYDDSDRPSGIPERFSGSNSGNTATLTISGTQAEDEADYYCQSYDFDFAVFGGTKLTVLGQ | 58
9 | PRO-021 Fab-dHLX (protein) VH: QVQLVQSGAEVKKPGSSVKVSCKASGGTFSSYAISWVRQAPGQGLEWMGGIIPIFGTANYAQKFQGRTITADESTSTAYMELSSLRSEDTAVYYCARDNWFKPFSDVWGQGTLVTVSS VL: not shown | 50
10 | PRO-001 Fab-dHLX (protein) VH: QVQLQQSGPGLVKPSQTLSLTCAISGDSVSSNSAAWNWIRQSPGRGLEWLGRTYYRSKWYNDYAVSVKSRITINPDTSKNQFSLQLNSVTPEDTAVYYCARSYYPDFDYWGQGTLVTVSS VL: DIELTQPPSVSVAPGQTARISCSGDALGDKYASWYQQKPGQAPVLVIYDDSDRPSGIPERFSGSNSGNTATLTISGTQAEDEADYYCQSYDGPDLWVFGGGTKLTVLGQ | 19
11 | PRO-002 Fab-dHLX (protein) VH: QVQLVQSGAEVKKPGASVKVSCKASGYTFTSYYMHWVRQAPGQGLEWMGWINPNSGGTNYAQKFQGRVTMTRDTSISTAYMELSSLRSEDTAVYYCARDFLGYEFDYWGQGTLVTVSS VL: DIELTQPPSVSVAPGQTARISCSGDALGDKYASWYQQKPGQAPVLVIYDDSDRPSGIPERFSGSNSGNTATLTISGTQAEDEADYYCQSYDYSADYVFGGGTKLTVLGQ | 360
12 | PRO-024 Fab-dHLX (protein) VH: QVQLVQSGAEVKKPGSSVKVSCKASGGTFSSYAISWVRQAPGQGLEWMGGIIPIFGTANYAQKFQGRVTITADESTSTAYMELSSLRSEDTAVYYCARVNHWTYTFDYWGQGTLVTVSS VL: not shown | 70

More lines, now with the values ahead:

Row | IC50 FGFR3 (FGF9), FDCP-FGFR3 proliferation assay performed with FGF9 [nM] | Binder
13 | 34 | PRO-055 Fab-dHLX (protein) VH: QVQLVQSGAEVKKPGASVKVSCKASGYTFTSYYMHWVRQAPGQGLEWMGWINPNSGGTNYAQKFQGRVTMTRDTSISTAYMELSSLRSEDTAVYYCARSMNSTMYWYLRRVLFDHWGQGTLVTVSS VL: DIALTQPASVSGSPGQSITISCTGTSSDVGGYNYVSWYQQHPGKAPKLMIYDVSNRPSGVSNRFSGSKSGNTASLTISGLQAEDEADYYCQSYDMYNYIVFGGGTKLTVLGQ
14 | 20 | PRO-029 Fab-dHLX (protein) VH: QVQLVQSGAEVKKPGASVKVSCKASGYTFTSYYMHWVRQAPGQGLEWMGWINPNSGGTNYAQKFQGRVTMTRDTSISTAYMELSSLRSEDTAVYYCARTWQYSYFYYLDGGYYFDIWGQGTLVTVSS VL: DIVLTQSPATLSLSPGERATLSCRASQSVSSSYLAWYQQKPGQAPRLLIYGASSRATGVPARFSGSGSGTDFTLTISSLEPEDFATYYCQQTNNAPVTFGQGTKVEIKRT
15 | 45 | PRO-054 Fab-dHLX (protein) VH: QVQLVQSGAEVKKPGASVKVSCKASGYTFTSYYMHWVRQAPGQGLEWMGWINPNSGGTNYAQKFQGRVTMTRDTSISTAYMELSSLRSEDTAVYYCARNMAYTNYQYVNMPHFDYWGQGTLVTVSS VL: DIELTQPPSVSVAPGQTARISCSGDALGDKYASWYQQKPGQAPVLVIYDDSDRPSGIPERFSGSNSGNTATLTISGTQAEDEADYYCQSYDYFKLVFGGGTKLTVLGQ
